Values quoted from earlier work in paper PMC6958331.

Target: hemopexin (Homo sapiens) (UniProt P02790)
UniProt P02790, sequence (P02790 24-462): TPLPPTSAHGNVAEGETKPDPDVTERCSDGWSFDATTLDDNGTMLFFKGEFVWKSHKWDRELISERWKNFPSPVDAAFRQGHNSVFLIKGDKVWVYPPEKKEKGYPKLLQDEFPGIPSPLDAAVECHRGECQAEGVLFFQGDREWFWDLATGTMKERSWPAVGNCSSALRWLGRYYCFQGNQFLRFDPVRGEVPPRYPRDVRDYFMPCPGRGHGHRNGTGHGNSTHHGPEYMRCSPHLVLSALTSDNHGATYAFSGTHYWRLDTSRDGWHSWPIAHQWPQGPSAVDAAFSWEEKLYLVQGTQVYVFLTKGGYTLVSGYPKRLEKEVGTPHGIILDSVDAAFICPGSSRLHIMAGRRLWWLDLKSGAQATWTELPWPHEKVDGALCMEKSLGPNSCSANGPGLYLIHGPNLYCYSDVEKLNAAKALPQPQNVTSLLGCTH

## LRP1/CD91 (from UniProt Q07954)
  Kd: 4 nM
